# Experimental data from US20250179160A1 (OMEROS, published 2025).
# Like-named read-outs stand apart in the source and are kept apart here.
# Experiments:
# [1] = molecular target: T1, recombinant human mature Factor D (human, UniProt P00746 26-253); experiment: ELISA: antibody titrated 3-fold from 3 ug/ml on plate coated with 1 ug/ml recombinant human mature Factor D; HRP anti-mouse, rat or human secondary; OD450
# T1 construct: also called mature CFD; hCFD
# [2] = molecular target: T2, recombinant human Pro-Factor D (human, UniProt P00746 20-253); experiment: sandwich ELISA: coat 21H1 (human IgG4) 1 ug/ml, recombinant human pro-Factor D spiked into diluent and titrated, detection biotin goat polyclonal BAF1824 and HRP-streptavidin; OD450
# T2 construct: also used for the endogenous pro-Factor D detected in 3MC patient serum; also called pro CFD; hPro-CFD
# Description: Controls of no additional Factor D in sera were treated similarly (unspiked). Assay wells were incubated for 1 hour at room temperature then washed three times with PBST. […] After incubation and washing, HRP-tagged Streptavidin was added, incubated, and washed, followed by TMB substrate.
# [3] = molecular target: T2, recombinant human Pro-Factor D; experiment: ELISA: antibody titrated 3-fold from 3 ug/ml on plate coated with 1 ug/ml recombinant human pro-Factor D; HRP anti-mouse, rat or human secondary; OD450
# [4] = molecular target: T3, recombinant human mature Factor D, Strep tagged (human, UniProt P00746 26-253); experiment: ELISA with hybridoma supernatant on immobilized antigen
# T3 construct: also called recombinant human mature CFD-Strep tagged; recombinant human mature Factor D-Streptavidin; not shown: Strep tag
# [5] = molecular target: T4, recombinant human Pro-Factor D-His (human, UniProt P00746 20-253); experiment: ELISA: antibody titrated from 3 ug/ml on 1 ug/ml plate-immobilized His-tagged Factor D; labeled goat anti-mouse IgG Fc; OD450
# T4 construct: also called recombinant human Pro-CFD-His; not shown: His tag
# [6] = molecular target: T5, recombinant human mature Factor D-His (human, UniProt P00746 26-253); experiment: as above
# T5 construct: also called recombinant human mature CFD-His; not shown: His tag
# [7] = molecular target: T1, recombinant human mature Factor D; experiment: sandwich ELISA: coat 3C5 (human IgG4), sample titrated (ug/ml Df), detection 14A11 (mouse IgG2a), HRP donkey anti-mouse IgG; OD450
# Excerpt: (§1) An HRP-labeled F(ab′)₂ fragment donkey anti-mouse IgG H&L antibody (Jackson ImmunoResearch) was used to signal the detection antibody, followed by development with TMB substrate (ThermoFisher).
# [8] = molecular target: T6, recombinant cynomolgus mature Factor D (cynomolgus monkey); experiment: sandwich ELISA: coat 12H10 (human IgG4), sample titrated (ug/ml Df), detection 14A11 (mouse IgG2a), HRP donkey anti-mouse IgG; OD450
# T6 construct: mature; not tied by words to this reagent; also called cy Mat CFD; cynomolgus recombinant mature Factor D
# Excerpt: as §1
# [9] = molecular target: T1, recombinant human mature Factor D; experiment: as above
# Excerpt: as §1
# [10] = molecular target: T6, recombinant cynomolgus mature Factor D; experiment: sandwich ELISA: coat 3C5 (human IgG4) 3 ug/mL, sample in 3-fold dilutions (ug/ml Df), detection 14A11 (mouse IgG2a) 3 ug/mL, HRP donkey anti-mouse IgG; OD450
# Description: as §1
# (§2) Wells were then washed three times. […] The plates were washed three times. 100 μL of Horseradish Peroxidase labeled F(ab′)2 Fragment Donkey anti-Mouse IgG H&L antibody (Jackson ImmunoResearch), diluted 1:30,000, was added to each well and incubated for one hour at room temperature. Wells were then washed three times.
# [11] = molecular target: T1, recombinant human mature Factor D; experiment: as above
# Description: as §1, §2
# [12] = molecular target: T7, purified (from human plasma) human Factor D (human, UniProt P00746 26-253); experiment: as above
# T7 construct: also called hu purif; CFD; purified human complement factor D (Complement Technologies)
# Description: as §1, §2
# [13] = molecular target: T6, recombinant cynomolgus mature Factor D; experiment: sandwich ELISA standard curve: coat 3C5 (human IgG4) 3 ug/mL, recombinant cynomolgus mature Factor D titrated, detection 14A11 3 ug/mL, HRP donkey anti-mouse IgG; OD450
# Excerpt: After washing, an HRP-labeled secondary antibody (HRP-labeled F(ab′)2 Fragment Donkey anti-Mouse IgG H&L antibody (Jackson ImmunoResearch)) was used to signal the detection antibody, followed by development with TMB (ThermoFisher). Samples were interpolated from a 4-parameter logistics curve of cynomolgus recombinant mature Factor D dilutions.
# [14] = molecular target: T4, recombinant human Pro-Factor D-His; experiment: ELISA: antibody titrated from 3 ug/ml on 1 ug/ml plate-immobilized His-tagged Factor D; labeled goat anti-mouse IgG Fc; OD450; remark: listed apart in the source
# Description: (§3) The candidate antibodies were titrated starting at 3 μg/mL antibody binding to 1 μg/mL plate-immobilized recombinant human mature Factor D-His or recombinant human Pro-Factor D-His proteins. Bound antibodies were detected by a labeled goat polyclonal antibody specific for mouse IgG Fc (Jackson ImmunoResearch).
# [15] = molecular target: T5, recombinant human mature Factor D-His; experiment: as above; remark: listed apart in the source
# Description: as §3
binder,measurement,setting,value
"21H1, purified recombinant, human IgG4 Fc (antibody, V domains shown, Mouse variable regions on human IgG4 (S228P) and human kappa constant regions; also called mAb 21H1; anti-pro Factor D-specific antibody 21H1) VH: DVQLQESGPGLVKPSQSLSLTCTVTGYSITSDYAWNWIRQFPGNKLEWMGYISYSGSTGYSPSLKSRISITRDTSKNQFFLHLNSVTTGDTATYYCARNGAMDYWGQGISVTVSS VL: DIVLTQSPASLAVSLGQRATISCKASQSVDYDGDSYMNWYQQKPGQPPKLLIYDASTLESGIPARFSGSGSGTDFTLNIHPVEEEDAATYYCQQNYEAPWTFGGGTKLEIKR",binding result,[1],no binding (tested: 3 ug/ml)
same,EC50 (read off the curve),[2],~0.004 µg/mL
same,EC50 (read off the curve),[3],~0.02 µg/mL
"13A10, purified recombinant, human IgG4 (antibody, V domains shown, Mouse variable regions on human IgG4 (S228P) and human kappa constant regions) VH: DVQLQESGPGLVKPSQSLSLTCTVTGYSITSDYAWNWIRQFPGNKLEWMGYISYIGGIGYNPSLKSRISITRDTSKNQFFLHLNSVTTGDTATYYCARNGAMDFWGQGISVTVSS VL: DIVLTQSPASLAVSLGQRATISCKASQSVDYDGDSYMNWYQQKPGQPPKLLIYDASNLESGIPARFSGSGSGTDFTLNIHPVEEEDAATYYCQQSNEAPWTFGGGTKLEIKR",binding result,[1],no binding (tested: 3 ug/ml)
same,EC50 (read off the curve),[3],~0.02 µg/mL
"11H1, hybridoma supernatant (antibody, V domains shown, Mouse hybridoma antibody) VH: EVQLVESGGGLVQPKGSLKLSCAASGFSFNTYAMNWVRQAPGKGLEWVARIRSKSNNYATHYADSVKDRFTISRDDSESMLYLQMNNLKTEDTAMYYCVRQGYYWYFDVWGTGTTVTVSS VL: DVLMTQTPLSLPVSLGDQASISCRSSQSIVHSNGNTYLEWYLQKPGQSPKLLIYTVSNRFSGVPDRFSGSGSGTDFTLKISRVEAEDLGVYYCFQGSHVPWTFGGGTKLEIKR",binding result,[4],binds
"7H2, hybridoma supernatant (antibody, V domains shown, Mouse hybridoma antibody) VH: EVQVVESGGGLVRPKGSLKLSCAASGFSFNTYAMNWVRQAPGKGLEWVARIRSKSNNYATYYADSVKDRFTISRDDSESMLSLQMNNLKTEDTAMYYCVRQGYYWYFDVWGTGTTVTVSS VL: DVLMTQTPLSLPVSLGDQASISCRSSQSIVHSNGNTYLEWYLQKPGQSPKLLIYTVSNRFSGVPDRFRGSGSGTDFTLKISRVEAEDLGVYYCFQGSHVPWTFGGGTKLEIKR",binding result,[4],binds
"12H10, recombinant purified, mouse IgG2a Fc (antibody, Mouse IgG2a and mouse kappa constant regions) heavy: EVQLVESGGGLVQPKGSLKLSCAASGFSFNTYAMNWVRQAPGKGLEWVARIRSKSNNYATYYADSVKDRFTISRDDSESMLYLQMNNLKTEDTAMYYCVRHGYYWYFDVWGTGTTVTVSSAKTTAPSVYPLAPVCGDTTGSSVTLGCLVKGYFPEPVTLTWNSGSLSSGVHTFPAVLQSDLYTLSSSVTVTSSTWPSQSITCNVAHPASSTKVDKKIEPRGPTIKPCPPCKCPAPNLLGGPSVFIFPPKIKDVLMISLSPIVTCVVVDVSEDDPDVQISWFVNNVEVHTAQTQTHREDYNSTLRVVSALPIQHQDWMSGKEFKCKVNNKDLPAPIERTISKPKGSVRAPQVYVLPPPEEEMTKKQVTLTCMVTDFMPEDIYVEWTNNGKTELNYKNTEPVLDSDGSYFMYSKLRVEKKNWVERNSYSCSVVHEGLHNHHTTKSFSRTPGK light: DVLMTQTPLSLPVSLGDQASISCRSSQSIVHSDGNTYLEWYLQKPGQSPKLLIYRVSNRFSGVPDRFSGSGSGTDFTLKISRVEAEDLGVYYCFQGSHVPYTFGGGTKLEIKRADAAPTVSIFPPSSEQLTSGGASVVCFLNNFYPKDINVKWKIDGSERQNGVLNSWTDQDSKDSTYSMSSTLTLTKDEYERHNSYTCEATHKTSTSPIVKSFNRNEC",EC50 (read off the curve),[5],~0.02 µg/mL
same,EC50 (read off the curve),[6],~0.04 µg/mL
"14A11, mouse IgG2a Fc version (antibody, Recombinant, mouse IgG2a and mouse kappa constant regions; also called mAb 14A11; detection antibody 14A11 (anti-human/cyno mature-Factor D-specific)) heavy: QITLKESGPGILQSSQTLSLTCSFSGVSLTTSGMGVSWIRQPSGKGLEWLAHIYWDDEKHYHPSLKSRLTISKDASRNQVFFRILSVDTADTATYYCALRYYGYRSFMDYWGQGTSVTVSSAKTTAPSVYPLAPVCGDTTGSSVTLGCLVKGYFPEPVTLTWNSGSLSSGVHTFPAVLQSDLYTLSSSVTVTSSTWPSQSITCNVAHPASSTKVDKKIEPRGPTIKPCPPCKCPAPNLLGGPSVFIFPPKIKDVLMISLSPIVTCVVVDVSEDDPDVQISWFVNNVEVHTAQTQTHREDYNSTLRVVSALPIQHQDWMSGKEFKCKVNNKDLPAPIERTISKPKGSVRAPQVYVLPPPEEEMTKKQVTLTCMVTDFMPEDIYVEWTNNGKTELNYKNTEPVLDSDGSYFMYSKLRVEKKNWVERNSYSCSVVHEGLHNHHTTKSFSRTPGK light: DVLMTQSPLSLPVSLGDQASIFCRSNQSIVHSNGNTYFEWYLQKPGQSPKLLIYKVSNRFSGVPDRFSGSGSGTDFTLRISRVEAEDLGIYYCFQGSHVPPTFGGGTKLEIKRADAAPTVSIFPPSSEQLTSGGASVVCFLNNFYPKDINVKWKIDGSERQNGVLNSWTDQDSKDSTYSMSSTLTLTKDEYERHNSYTCEATHKTSTSPIVKSFNRNEC",EC50 (read off the curve),[7],~0.02 µg/mL
same,EC50 (read off the curve),[8],~0.08 µg/mL
same,EC50 (read off the curve),[9],~0.04 µg/mL
same,EC50 (read off the curve),[10],~0.06 µg/mL
same,EC50 (read off the curve),[11],~0.03 µg/mL
same,EC50 (read off the curve),[12],~0.04 µg/mL
same,EC50 (read off the curve),[13],~0.06 µg/mL
"18F5, purified recombinant, human IgG4 (antibody, V domains shown, Mouse variable regions on human IgG4 (S228P) and human kappa constant regions) VH: EVKLEESGGGLVQPGGSMKLSCVASGFTFGNYWMSWVRQSPEKGLEWVAEIRLKSDNYATHYAESVKGKFTISRDDSKSRLYLQMNSLRGEDTGLYYCTNAWFASWGQGTLVTVSA VL: DIVMSQSPSSLAVSVGEKVTMSCMSSQSLLYSKDQKNYLAWYQQKPGQSPKLLIYWASTRESGVPDRFTGSGSGTDFTLTISSVKAEDLAVYYCLQYYTYPYTFGGGTKLEIKR",binding result,[1],no binding (tested: 3 ug/ml)
same,EC50 (read off the curve),[3],~0.03 µg/mL
"2A4, purified recombinant, human IgG4 (antibody, V domains shown, Mouse variable regions on human IgG4 (S228P) and human kappa constant regions) VH: EVKLEESGGGLVQPGGSMKLSCVASGFTFSTYWMSWVRQSPEKGLEWVAEIRLKSDNYATHYTESVKGKFTISRDDSKSRLYLQMNSLRVEDTGIYYCTNAWFAYWGQGTLVTVSA VL: DIVMSQSPSSLAVSVGEKFTMSCKSSQSLLYSRDQKNYLAWYQQQPGQSPKLLIYWASTRESGVPDRFTGSGSGTDFTLTISSVKTEDLAVYYCLQYYSYPYTFGGGTKLEIKR",binding result,[1],no binding (tested: 3 ug/ml)
same,EC50 (read off the curve),[3],~0.03 µg/mL
"3C5, recombinant purified, mouse IgG2a Fc (antibody, Mouse IgG2a and mouse kappa constant regions) heavy: EVKLVESGGGLVQPGGSLKLSCATSGFTFSDYGMAWVRQAPGKGPEWVAFISNLAYSFYYVDIVMGRFTISRENAKNTLYLEMSSLRSEDTAMYYCARVGLYGNFFMDYWGQGTSVTVSSAKTTAPSVYPLAPVCGDTTGSSVTLGCLVKGYFPEPVTLTWNSGSLSSGVHTFPAVLQSDLYTLSSSVTVTSSTWPSQSITCNVAHPASSTKVDKKIEPRGPTIKPCPPCKCPAPNLLGGPSVFIFPPKIKDVLMISLSPIVTCVVVDVSEDDPDVQISWFVNNVEVHTAQTQTHREDYNSTLRVVSALPIQHQDWMSGKEFKCKVNNKDLPAPIERTISKPKGSVRAPQVYVLPPPEEEMTKKQVTLTCMVTDFMPEDIYVEWTNNGKTELNYKNTEPVLDSDGSYFMYSKLRVEKKNWVERNSYSCSVVHEGLHNHHTTKSFSRTPGK light: DIQMNQSPSSLSASLGDTITITCHASQNINVWLSWYQQKPGNIPELLIYKASNLHTGVPSRFSGNRSGTSFTLTISSLQPEDIGTYFCQQGQSYPLTFGAGTKLELRRADAAPTVSIFPPSSEQLTSGGASVVCFLNNFYPKDINVKWKIDGSERQNGVLNSWTDQDSKDSTYSMSSTLTLTKDEYERHNSYTCEATHKTSTSPIVKSFNRNEC",EC50 (read off the curve),[14],~0.04 µg/mL
same,EC50 (read off the curve),[15],~0.06 µg/mL
